Experiment: label from the status in PepcDB records

| Sequence | protein production |
| --- | --- |
| MEYRITGKGVEISEAIKNYLEKRLDKIDRVIYDDDLVSFNVRIEKDGKNQYVVKFNMNLKGNIINVEERHPDIYTAIDFASDALEKQVKRLKERLKNHPHRSSALVETPLEEPGEFSPSDKVSSVKRVSLLNLDLDEAVMQMDELNHRFLVFRNVNTGEINLLYRDENGDIHLIEMAE | failed |
| FYTPKAVVQLVVELIDPRPGHSVYDPTCGSGGMLVESAHHVSGLPDGTLMGKPNVLLYGQEKNLGTWAIAKLNLYLHNMHASIERGDTLVEPKHLDGDYLKTFDRVIANPPFSAKSWWTPLELSNENEQENGKKVKAPNYKQVSDPYGRLVYGVPPRGYADLAFAQHMLASLKADGRMGVILPHGVLFRSGEEGKIREGLLFGTGAASGNQPGDVIEAIVGLPSALFYNTGIPACVLILNKQKPSALKDKVIIIDGSRDYLEGKAQNSLHAEDILRIVSTH | failed |
| MAVAAAKYTTGFWINTIVIILIIAYLVYQLYLYWKRGKISTQLDDDEFRAGMRKAQVIDVREKKEFDAGHILGARNIPYSQMKNRTQELRSDLPVYLYDQGRTFSGRAAMLLSKKGFTQLYILKNGYQRWTGKTKKTKY | failed |
| MDFDLRWLFIAASLGLCAWAGWQFVHRLARARLLGDVPTSRIRSAAQGFVELYGVLEEGPEGPLQAPLTGKPCLWWRYRIEVEEKRSGREKAWRTVDKGASESPFSLRDATDACLVDPRGAEVRPLTQQRWEAFREAPIDTLRLLESFGTLVGGERLYRYTEERLHAGEPLYALGEFRSSGGGRQGLDAERAQGAVIREWKGDFHGLLARFDSDGNGELDEREWNRVRLAARLEAEDRHRASSAAPTRHRLGKPGEAHPFILSSQGEDDLAVQLRRQAAGAALLCLGSALLAGWLFSRLF | failed |
| VVNDEWLSILGLSRQDITNHISDWDGLIHPNDDQFMKKTVQTHILSGKNYVVEFRMKHADGRWVWIQGSGSVIEYDENTHEPVRLCGTHQDITVRK | failed |
| MIKVKSPGRVNLIGEHTDYTYGYVMPMAINLYTKIEAEKHGEVILYSEHFGEERKFSLNDLRKENSWIDYVKGIFWVLKESDYEVGGIKGRVSGNLPLGAGLSSSASFEVGILETLDKLYNLKLDSLSKVLLAKKAENEFVGVPCGILDQFAVVFGREGNVIFLDTHTLDYEYIPFPKDVSILVFYTGVRRELASSEYAERKHIAEESLKILGKGSSKEVREGELSKLPPLHRKFFGYIVRENARVLEVRDALKEGNVEEVGKILTTAHWDLAKNYEVSCKELDFFVERALKLGAYGARLTGAGFGGSAIALVDKEDAETIGEEILREYLKRFPWKARHFIVEPSDGVGI | not failed |
| MKARAILLASVLLVGCQASKHDGTVEQRAQSLSAAGQGEAGKFTSQARWLDDGTFYAQDQDLWTSIGDELKMGIPDNPRIREQKQKYLRNKSYLHDVTLRAEPYMYWIAGQVKKRNMPMELVLLPIVESAFDPHATSGANAAGIWQIIPSTGRNYGLKQTRSYDARRDVVASTTAALDMMQRLNKMFDGDWLLTVAAYNSGEGRVMKAVKANRSRGKPTDFWSLSLPHETKIYVPKMLALSDILKNSKRYGVKLPTADESRALARVRLDSPVDISQLADMAGMPVSKLKTFNAGVKGSTLGASGPKYVMVPQKHAAQLRESLASGDIAAVQPTQLADNTPLTSRSYKVRSGDTISGIASRLGVTTRDLQQWNNLRGSGLKVGQNLVIGAGSSAQRLANNSDSITYRVRKGDSLSSIAKRHGVNIRDVMRWNSDTDNLRPGDQLTLFVKNNDRPES | failed |
| MQPTSITVASYNLRNANGGDSINGNGWGQRYPVIAQIVQYHDFDIFGTQECFIHQLKDMKEALPGYDYIGVGRDDGKEKGEHSAIFYRTDKFDVIEKGDFWLSETPDVPSKGWDAVLPRICSWGHFKCKDTGFEFLFFNLHMDHIGKKARVESAFLVQDKMKELGKGKELPAILTGDFNVDQTHQSYDAFVSKGVLCDSYEKAGFRYAINGTFNDFDPNSFTESRIDHIFVSPSFQVKRYGVLTDTYRSIVGKGEKKQANDCPEEIDIKTYQARTPSDHFPVKVELEFDQRQQKLEHHHHHH | not failed |
| MNLDRRGLILLVILTLAWGINWPIMKLGVAHFPAMAFRLLCMAGGLVALGLALTFRGDSLRVPRAAWGTVLKLAIPNMVIWHLFAICAVKMLSSGRAAILGYTMPIWAVVWGLVIFRDRIALSAWIGIGCALAGTVLLLSGEIAALTGSPAGTLLMLVAAAGWGFGTQLMKRTHTDVPIGAMTFWMLAITLPFLGAGTLLFESGWRMPTAIEWGAIAYNAVVVFAYCHLVWFALARSLPPVVSSLSIMFIPVVGVFSGMWFLGETPHWQDYVAIVLMFAALSSVMLAPLLRRRM | failed |
| MFTMVQKLWLTVVCAVFVTVSFLYFVSLYSYEKLYVDNLKDSLVMEGKRLSAQYDKREGISIFEEKVRAFDQISSSDVLFVSNPRDLSACLPFDVHHHSLISEGDRQALLDGKTVTKIGYEEHFDRNIMGVVIPVLENKKLVGIVYSYIPLKSIKDLIYDMGLILAPLALAITLLTIWIGRKIIIAITKPLSQMERVANHLATGDFSERITISSEDEIGRLGKAFNKMANSLETEDVKRKEFLANVSHELRTPLSYIKGYSEAILDGVAKGPQQEKVTQLIHKEADRMQRLVHDLLDLAQLEGEHFPLKKQPIVFSQLIEDVLDTYEIKFIEKKIRISTNLNPEIIVMIDEDRMQQVLHNVLDNAIRYTNQNGDIIVTLRQIDDYCELNIKDTGIGIDTEHLENLGERFYRVDKARSRQHGGTGLGLAIVRQIVHIHDGQWRIESEKGNGTTVSIKLKVQDEESMF | failed |
| MRFSRARTEEVLRALVHEIRAERLTFMAGSIAYHAFLSILPLLLLVLTFVQRTENVTLRASIVGIMEAVLTTQASGIIQQGLTEADASVSALGVGFLLWGSLRIFRGLDTAFSDIYETGASNTFLDQLGDGLVLLVTVAVAILSASALGSVLPETGSGPLWTVASGLVRAAGLFVVFYPMYYIFPDTDVSPLEAVPGVAFAAIGLTVAQVLFTAFKSGSTGGNIIASILVLLSWLYIIGLVILLGAAINAVLSNRSADVDIDPVVGEHSQQNTIRTTTMSREALLAELETLADRFQQGQGTITVEIADERTDIDCPETATVDRSSDVFGLDQSVALTLRWWPNEK | failed |
| MNKRPARPTRSRRRISVAPATRQLRNARQMMADDIAVARAVERGELETEEHPTHGATNAEKAAESGLQPQPSDHEKAEVATSKHGLPKLTIVLLTVAAAWLGLSFLHELSSVVAPLFFGLNLLITAYPIHTWLVKHKCPRWISATTAGTAVIVVLAAGVVGMVWSVAAMINQLQSYIPQMEKIYTQLLHWSTQLGYSQDVIADKLKKIDPQQVMSVVTSVASDTTSVVTMIIVILTGMIFMVMDTPQMHDRLRMAGSRKPDVVLALESFASGIRKYWLVTTVFGLIVALFDWAALLIIGVPLAGVWALFSFLTNYIPNIGFIIGVIPPALLALFKDGWVAAVAVVVSYSVLNFVIQSIIQPKFAGDAVGLTPTMSFVSLLLWGWVFGALGTLIALPCSLLVKATLIDHDPGARWVNALISSRPTEGLEDNPDE | failed |
| MSLKVVSVDTLCCDAGWRNYHFVKLTTDEGIVGWSEFDEGFGSPGVTAVIEQLGKRLVGASVMEHERFFAEAYCLTRPATGGVVSEGIGAIENALLDAKAKTLNVPCYELLGGKLRDRVPVYWSHCPTWRINHPKFFGPPVTDLDGVKRTAEEARERQFRAIKTNIFIHDDGPLHAWRPGFAVPFQPALNVDRKVLRNLRAHLEALRDGAGPDVEILLDLNFNAKPEGYLKILRELADFDLFWVEIDSYSPQGLAYVRNHSPHPISSCETLFGIREFKPFFDANAVDVAIVDTIWNGVWQSMKIAAFADAHDINVAPHNFYGHLCTMINANFAAAVPNLRIMETDIDRLAWEDELFTHAPEYQNGELIIPDRPGWGTDPVEEAILAHPPKVMGGLLQYKRSEGHHHHHH | not failed |
| MLSFIIKRILWAIPTLFGVSIIVFMMVHLVPGDPALVILGEKANQAAIDALREQFGLNKPLIEQYFFFINNVLHGNFGTSIMTGEPVMHEFWQRFPATVELALIALFMALVLGISVGVLAAIKRYSVFDYSSMTFALAGISMPVFWLGLMLIYIFSVQLGWLPVFGRLSDVYYLDGPTGLYLIDSLIARDYGAFMDTIKHLILPSIVLATVSTAVIARMTRASMAEVSKEDYVRTAKAKGCSSFRVIFVHTLRNALIPVTTIAGLMLAGLLGGSMITETVFSWPGIGKWIVNALNQRDFPIIQSMSLIIAMMYIGANLLVDILYAFIDPRIRLS | failed |
| MTTIRVENLSKIFKKGKTEVKAVDNVSITIDSGMAFGVLGPSGHGKTTFLRLIAGLEEPTSGYIYFDNEAVSSPRRVMMSPEKRGIAMVFQNWALYPNMTVFDNIAFPLKLAKVPKDKIENKVKEVSEELGLSGVLNRYPKELSGGQMQRTAIARALVKDPKVLLLDEPFSNLDAQIRESARALVRKIQRERKLTTLIVSHDPADIFAIANKAGVIVNGKFAQIGTPTEIYEYPATDLIARLTGEINLIQAKIIENNAIIANLKVPLNNMELKGQSNIVIGLRPDDLTLSDTLLDKYIDMGIVKVKLVSYGAGIFKIVVSPITDENIDIIVDAEEPLETGIETHLLAKPNKVKIFDLNGSNLITSKTQIIK | failed |
| MTGLINAIPATNKDEYKNVGVYIEHRGDELKRPSIEMIGIGKQLARKVNEKLICVVIGDKVDGIAKEVGEYGCDIVLAAESPELAEYRTMPYAEIIGGYIQEYKPNIFLLAATRNGRDLASRIAVKSRTGITADCTVLDIDENRTLLANRPTYGESTLAEILCRNHRPQMATARPGIFPPAEKEKDHKYEVIKKKVDVDKKLLGKQILKFI | not failed |
| VSDMNGLGFKPFDLVIPFAVRKGEITGEVHMPSGKTATPEIVDNKDGTVTVRYAPTEVGLHEMHIKYMGSHIPESPLQFYVNYPNSGS | not failed |
| KEGVLCLNTKGQITYANSQALKLLGGSLEELYGKTPQHYFTLENTEGKGMGELLERVLCGESTLQEGSGTLYKKERFLAHVEFTLSPIIDKG | failed |
| MVARDTTAPQVKIVNPVTGNVSGSNVPISVNASDDSGASGITYALYIDGVLKATGKGSTLGYNWNIRNVAAGAHTVQVVAKDAAGNSASSSVSVTVVKLEHHHHHH | failed |
| MQEQRQQLLRSLEALIFSSEEPVNLQTLSQITAHKFTPSELQEAVDELNRDYEATGRTFRIHAIAGGYRFLTEPEFADLVRQLLAPVIQRRLSRSMLEVLAVVAWHQPVTKGEIQQIRGASPDYSIDRLLARGLIEVRGRADSPGRPLQYGTTEVFLDLFHLPSLKDLPKLREIKEILQEHEEQQYLAADGDLPVAADEDEKPRMERIE | not failed |
| HQEIKGRKTLATPAVRRLAMENNIKLSEVVGSGKDGRILKEDILNYLEKQTGAILPP | not failed |
| MKELIKEHQKDINPALQLHDWVEYYRPFAANGQSANYIPALGKVNDSQLGICVLEPDGTMIHAGDWNVSFTMQSISKVISFIAACMSRGIPYVLDRVDVEPTGDAFNSIIRLEINKPGKPFNPMINAGALTIASILPGESAYEKLEFLYSVMETLIGKRPRIHEEVFRSEWETAHRNRALAYYLKETNFLEAEVEETLEVYLKQCAMESTTEDIALIGLILAHDGYHPIRHEQVIPKDVAKLAKALMLTCGMYNASGKYAAFVGVPAKSGVSGGIMALVPPSARREQPFQSGCGIGIYGPAIDEYGNSLTGGMLLKHMAQEWELSIF | not failed |
| MQNTTHDNVILELTVRNHPGVMTHVCGLFARRAFNVEGILCLPIQDSDKSHIWLLVNDDQRLEQMISQIDKLEDVVKVQRNQSDPTMFNKIAVFFQ | failed |
| MDQKPQPAKTHATEVTVLEGKTMGTFWRASIPGIDAKRSAELKEKIQTQLDADDQLLSTYKKDSALMRFNDSQSLSPWPVSEAMADIVTTSLRIGAKTDGAMDITVGPLVNLWGFGPEQQPVQIPSQEQIDAMKAKTGLQHLTVINQSHQQYLQKDLPDLYVDLSTVGEGYAADHLARLMEQEGISRYLVSVGGALNSRGMNGEGLPWRVAIQKPTDKENAVQAVVDINGHGISTSGSYRNYYELDGKRLSHVIDPQTGRPIEHNLVSVTVIAPTALEADAWDTGLMVLGPEKAKEVVRREGLAVYMITKEGDSFKTWMSPQFKSFLVSEKNLEHHHHHH | not failed |
